Experimental data reported in the supplement of paper PMC12783771.
± gives the standard deviation of the averaged measurements.

B1: library; a variant is named by its letters at X, in order (parent)
chain: MNIQIGELAKRTACPVVTIRFYEQEGLLPPPGRSRGNFRLYGEEHVERLQFIRHCRSLDMPLSDVRTLLSYRKRPDQDCGEVXMLLDEHIRQVESRIGALLELKHHLVELREACSGARPAQSCGILQXLSXCVCXTRGTTAHXSD

Experiments:
[1] = variants of: B1; assay: sfGFP reporter fluorescence (15 h) (µM FITC); higher = higher leak; conditions: library round: Round 2; ligand: none
Description: (§1)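 Cell-free biosensing: 1 µL Echo-assembled CFE reactions with linear PbrR variant templates (5 nM) and pPbrR-sfGFP reporter, with 1 µM Pb, 30 µM Zn or no ligand; endpoint sfGFP fluorescence after 15 h at 30 °C calibrated as µM FITC. Round 2 ML-predicted PbrR mutants; up to 3 biological replicates.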

[2] = variants of: B1; assay: sfGFP reporter fluorescence (15 h) (µM FITC); higher = stronger transcriptional activation; conditions: library round: Round 2
Description: as §1

Row | Variant | sfGFP reporter fluorescence [1] | sfGFP reporter fluorescence ([2]; ligand: 1 µM Pb) | sfGFP reporter fluorescence ([2]; ligand: 30 µM Zn)
1 | NGYPP V108I | 0.0743 ± 0.0068 | 0.149 ± 0.033 | 1.1 ± 0.074
2 | NGDPP M84A R111A | 0.0671 ± 0.0045 | 0.0854 ± 0.013 | 0.919 ± 0.12
3 | NGDAM Q121A | 0.0666 ± 0.0079 | 0.106 ± 0.0059 | 1.36 ± 0.13
4 | NGDAR E112I | 0.0495 ± 0.0017 | 0.054 ± 0.002 | 0.35 ± 0.016
5 | TIDSP L107C | 0.384 ± 0.026 | 1.42 ± 0.32 | 3.28 ± 0.26
6 | NGAKP L107V | 0.173 ± 0.011 | 0.513 ± 0.055 | 3.38 ± 0.24
7 | TGSDY Q121A | 0.0567 ± 0.0051 | 0.0961 ± 0.0073 | 0.443 ± 0.056
8 | NGDDP P61N D64K V108M | 0.154 ± 0.014 | 0.461 ± 0.026 | 2.33 ± 0.24
9 | NGAPY | 0.0801 ± 0.0048 | 0.159 ± 0.0087 | 1.13 ± 0.12
10 | NGAPL | 0.0797 ± 0.0073 | 0.16 ± 0.0081 | 1.22 ± 0.26
11 | NGDRP D64T E88A | 0.369 ± 0.048 | 0.499 ± 0.14 | 3.13 ± 0.29
12 | NMDDP I3M P61N K104V L107C | 0.501 ± 0.013 | 0.989 ± 0.041 | 2.79 ± 0.18
13 | NGADY L107C | 1.36 ± 0.23 | 2.4 ± 0.18 | 3.25 ± 0.18
14 | NHCDP I125V | 0.0459 ± 0.0044 | 0.0526 ± 0.0016 | 0.0631 ± 0.0035
15 | TGSDP H142A | 0.0642 ± 0.0043 | 0.081 ± 0.0053 | 0.451 ± 0.086
16 | NGDPP G124S I125L | 0.0484 ± 0.0015 | 0.0455 ± 0.0014 | 0.0506 ± 0.001
17 | NIDDP I90L K104V L107C | 0.0665 ± 0.003 | 0.0702 ± 0.0034 | 0.178 ± 0.014
18 | NHDDL E109L I125L | 0.048 ± 0.0018 | 0.044 ± 0.0027 | 0.047 ± 0.0027
19 | NGDAP P61N V108E | 0.0745 ± 0.0048 | 0.129 ± 0.01 | 1.48 ± 0.14
20 | NGYAP K104R | 0.0664 ± 0.0054 | 0.0679 ± 0.0057 | 0.698 ± 0.11
21 | TGDAL V108L | 0.0451 ± 0.0016 | 0.073 ± 0.0021 | 0.281 ± 0.0062
22 | NGDDP P61N D64K K104M L107C | 0.791 ± 0.061 | 1.74 ± 0.2 | 2.52 ± 0.35

Row | Variant | sfGFP reporter fluorescence [1] | sfGFP reporter fluorescence ([2]; ligand: 1 µM Pb) | sfGFP reporter fluorescence ([2]; ligand: 30 µM Zn)
23 | TGDDP E109D E112K | 0.0468 ± 0.0013 | 0.0781 ± 0.0022 | 0.418 ± 0.034
24 | NHDDA E109L | 0.0459 ± 0.0013 | 0.0809 ± 0.0052 | 0.343 ± 0.014
25 | NICDP M60L D64K | 2.32 ± 0.17 | 3.17 ± 0.17 | 3.67 ± 0.38
26 | TGDDP V82I L85K | 0.0407 ± 0.0021 | 0.0368 ± 0.00078 | 0.0458 ± 0.0007
27 | SGDAY | 0.0491 ± 0.0015 | 0.0749 ± 0.0032 | 0.399 ± 0.039
28 | SGDAA | 0.0628 ± 0.0043 | 0.0745 ± 0.0027 | 0.449 ± 0.062
29 | SGDDW V108L | 0.0515 ± 0.0023 | 0.0672 ± 0.0033 | 0.247 ± 0.031
30 | NHCDL E109L | 0.0622 ± 0.0037 | 0.0798 ± 0.0072 | 0.512 ± 0.062
31 | NMDAK L107C | 2.86 ± 0.17 | 3.46 ± 0.15 | 3.68 ± 0.19
32 | SGDVP K104V | 0.067 ± 0.0056 | 0.134 ± 0.0074 | 1.3 ± 0.15
33 | NGDAL P61N | 0.0792 ± 0.0022 | 0.235 ± 0.018 | 1.57 ± 0.074
34 | NGDAT L85I | 0.0427 ± 0.0024 | 0.0595 ± 0.0027 | 0.809 ± 0.019
35 | MGSDA | 0.0442 ± 0.0017 | 0.0841 ± 0.0012 | 0.0513 ± 0.00078
36 | TGDRW | 0.0495 ± 0.00078 | 0.0726 ± 0.0038 | 0.205 ± 0.014
37 | TIDDP L107C E109H | 0.247 ± 0.016 | 1.19 ± 0.15 | 2.03 ± 0.17
38 | NMDDP L107C E109V | 2.96 ± 0.17 | 3.18 ± 0.55 | 3.51 ± 0.14
39 | TGAPL | 0.0604 ± 0.0053 | 0.109 ± 0.013 | 0.301 ± 0.034
40 | TGAPW | 0.0521 ± 0.00089 | 0.146 ± 0.014 | 0.264 ± 0.014
41 | NIEDP C134E | 0.194 ± 0.028 | 0.316 ± 0.0082 | 4.73 ± 3.2
42 | NGDRP P61N D64A | 0.111 ± 0.007 | 0.221 ± 0.0096 | 1.54 ± 0.25
43 | NGSAA K104R | 0.0641 ± 0.0074 | 0.097 ± 0.0024 | 1.05 ± 0.14
44 | NGDDW L110I S115G | 0.0528 ± 0.0019 | 0.0476 ± 0.0019 | 0.325 ± 0.019

Row | Variant | sfGFP reporter fluorescence [1] | sfGFP reporter fluorescence ([2]; ligand: 1 µM Pb) | sfGFP reporter fluorescence ([2]; ligand: 30 µM Zn)
45 | TGDDY E112I | 0.0493 ± 0.0015 | 0.0522 ± 0.0014 | 0.076 ± 0.0028
46 | SGMAP | 0.0668 ± 0.0035 | 0.0819 ± 0.0034 | 0.586 ± 0.076
47 | NGDDP P61N L107C E109H | 0.627 ± 0.1 | 1.51 ± 0.22 | 2.62 ± 0.31
48 | NLDDP G124A L129A | 0.0419 ± 0.0017 | 0.0398 ± 0.0017 | 0.0426 ± 0.0023
49 | TGDPR E109L | 0.063 ± 0.0052 | 0.114 ± 0.0072 | 0.346 ± 0.039
50 | NGADW L126I | 0.0633 ± 0.0051 | 0.0592 ± 0.0043 | 0.317 ± 0.024
51 | SGSPP | 0.0484 ± 0.0013 | 0.123 ± 0.0072 | 0.394 ± 0.023
52 | TGHPY | 0.0455 ± 0.0011 | 0.116 ± 0.0064 | 0.214 ± 0.017
53 | IGDDR K104V H106A | 0.0522 ± 0.00085 | 0.136 ± 0.0052 | 0.0496 ± 0.0028
54 | NICDP I125L | 0.0468 ± 0.0013 | 0.0446 ± 0.0014 | 0.0531 ± 0.0013
55 | NHDDA V108L | 0.0477 ± 0.0017 | 0.0671 ± 0.0043 | 0.271 ± 0.03
56 | NIDAK M84A L107C | 1.54 ± 0.14 | 2.6 ± 0.14 | 4.03 ± 0.52
57 | NGDDP D64K V108E R111L | 0.0746 ± 0.0031 | 0.165 ± 0.012 | 1.8 ± 0.29
58 | NGLAP P61T | 0.217 ± 0.015 | 0.402 ± 0.021 | 1.9 ± 0.27
59 | NGSAY L107V | 0.12 ± 0.017 | 0.238 ± 0.042 | 1.97 ± 0.17
60 | TGDAA E112I | 0.04637 ± 0.00034 | 0.0525 ± 0.0024 | 0.108 ± 0.0066
61 | NGADT C134V | 0.103 ± 0.013 | 0.155 ± 0.03 | 2.64 ± 0.21
62 | NMDAA K104R L107C | 2.28 ± 0.3 | 3.13 ± 0.41 | 3.83 ± 0.4
63 | NGDAP P61D D64K L107C | 2.53 ± 0.22 | 1.89 ± 0.26 | 2.38 ± 0.23
64 | NGDDM I90L I125L | 0.0615 ± 0.0043 | 0.0526 ± 0.0027 | 0.0576 ± 0.0035
65 | TGDRP V108L | 0.0448 ± 0.0017 | 0.0788 ± 0.0022 | 0.327 ± 0.012
66 | NMDDA M60L | 0.805 ± 0.062 | 1.88 ± 0.22 | 3.33 ± 0.49

Row | Variant | sfGFP reporter fluorescence [1] | sfGFP reporter fluorescence ([2]; ligand: 1 µM Pb) | sfGFP reporter fluorescence ([2]; ligand: 30 µM Zn)
67 | TGDDP R96A K104V | 0.052 ± 0.0012 | 0.0513 ± 0.0043 | 0.0712 ± 0.0018
68 | NGHAY | 0.0533 ± 0.003 | 0.0816 ± 0.0062 | 0.791 ± 0.037
69 | NGCDP D64K E112H | 0.108 ± 0.012 | 0.402 ± 0.043 | 1.44 ± 0.16
70 | NGDDP P61E D64K E112H | 0.157 ± 0.027 | 0.377 ± 0.021 | 1.95 ± 0.22
71 | TGCDT L129I | 0.0433 ± 0.0032 | 0.0464 | 0.0525 ± 0.0028
72 | TIDDP D64K K104V | 0.156 ± 0.022 | 0.472 ± 0.075 | 2.62 ± 0.29
73 | TGDDP I97A K104G | 0.0644 ± 0.0063 | 0.155 ± 0.025 | 0.412 ± 0.04
74 | NGDDP P61N L107C C134I | 2.22 ± 0.18 | 2.54 ± 0.38 | 3.82 ± 0.36
75 | TGNRA | 0.0608 ± 0.0044 | 0.107 ± 0.018 | 0.663 ± 0.059
76 | NGCDP M60L P61N D64K K104V | 0.179 ± 0.016 | 0.384 ± 0.049 | 1.39 ± 0.088
77 | NIDDP M60L P61N K104V L107C | 0.315 ± 0.042 | 1.19 ± 0.096 | 2.16 ± 0.42
78 | NGDDP P61E L62I D64K | 0.125 ± 0.015 | 0.249 ± 0.094 | 1.34 ± 0.17
79 | NGDAL L110I | 0.0605 ± 0.0082 | 0.0575 ± 0.0038 | 0.953 ± 0.064
80 | NGDAP S130A T136A | 0.0512 ± 0.001 | 0.0834 ± 0.0067 | 1.11 ± 0.13
81 | NGYAP S95G | 0.0664 ± 0.003 | 0.0795 ± 0.0044 | 1.03 ± 0.072
82 | NGDDP D87E S95A K104V R111A | 0.0648 ± 0.0053 | 0.0918 ± 0.0068 | 0.74 ± 0.092
83 | SGDDP I90L D145A | 0.0442 ± 0.0022 | 0.046 ± 0.001 | 0.122 ± 0.0052
84 | NGSPA | 0.0677 ± 0.013 | 0.114 ± 0.019 | 0.999 ± 0.13
85 | NGSPL | 0.077 ± 0.0065 | 0.141 ± 0.014 | 1.2 ± 0.12
86 | NGTYP V133P | 0.0724 ± 0.0067 | 0.148 ± 0.0095 | 0.951 ± 0.42
87 | NGDDP | 0.0488 ± 0.0061 | 0.0602 ± 0.0046 | 0.684 ± 0.074
88 | NIDDP P61N C134E | 0.308 ± 0.021 | 0.544 ± 0.11 | 3.19 ± 0.055
